Patent publication US11382907B2, “Methods and compositions for treating aging-associated impairments using CCR3-inhibitors” (Alkahest, Inc., priority 2017, dated 2022)

How the values were obtained:
Format in all cases: in vivo
[1] = tested on: two-month-old C57Bl/6 mice treated with rmCCL11; assay: Barnes maze test in young mice given recombinant mouse CCL11; settings: 2-month-old mice; rmCCL11 i.p.; Compound 1 30 mg/kg p.o. b.i.d.
From the text: A modified Barnes maze was used to assess spatial working/episodic like learning and memory. The Barnes maze apparatus consists of a 122 cm diameter circular platform with 40 escape holes, each with a diameter of 5 cm placed along three rings of varying distances from the center of the platform. An escape box is attached to one of the holes and all holes are left uncovered. Bright lights and a fan are trained on the maze to provide adverse stimuli to encourage escape. Visual cues are placed on all four sides of the maze. Mice are given a series of 4 or 5 trials with inter-trial intervals of approximately 10 min, and the maximum duration of each trial is 90 or 120 sec. For each trial, mice are placed in the center of the maze. After 10 seconds, mice are allowed to explore, and the trial is ended if the mouse has found and entered an escape box before the end of the trial. Mice that cannot find the escape box are led to it and allowed to enter and given 30 sec to remain before being returned to its home cage. Training is done for 4 days. Data that is recorded and analyzed include velocity, escape latency, and distance moved.
(§1) Two-month-old C57Bl/6 mice were dosed with either vehicle control or Compound 1 by oral gavage twice daily for 18 days. During the last week of treatment, mice were subjected to behavior testing prior to perfusion on the last day of treatment. […]

[2] = tested on: two-month-old C57Bl/6 mice treated with rmCCL11; assay: Open Field test in young mice given recombinant mouse CCL11; settings: 2-month-old mice; rmCCL11 i.p.; Compound 1 30 mg/kg p.o. b.i.d., 2 weeks
Method: Open Field is used to evaluate general locomotor activity and exploratory behavior in a novel environment. Mice are brought to the experimental room for at least 30 min for acclimation to the experimental room conditions (dim lighting) prior to testing. The testing arena consists of a 50 cm×50 cm square arena. Mice are placed in the center of an arena and tracked for 15 minutes. Time spent in the peripheral and centers zones is analyzed, along with rearing behavior. 70% ethanol is used to clean all surfaces between trials.
[…] During the last week of treatment, mice were subjected to behavior testing prior to perfusion on the last day of treatment. All mice received 5 consecutive days of BrdU injection at 150 mg/kg IP immediately prior to treatment start. […]

[3] = tested on: two-month-old C57Bl/6 mice treated with rmCCL11; assay: Y-maze test in young mice given recombinant mouse CCL11; settings: 2-month-old mice; rmCCL11 i.p.; Compound 1 30 mg/kg p.o. b.i.d.
Method: A large Y-maze test assesses short-term memory of the familiarity of a specific context. Mice are brought to the experimental room for at least 30 min of acclimation to the experimental room conditions (dim lighting) prior to testing. For the initial training trial, the mouse is placed at the end of one arm of a large Y-maze designated “start arm” (arm length: 15 inches). The third arm of the maze is blocked off, allowing the mouse to explore two of the three arms freely (“start arm” and “familiar arm”) for 5 min. Each arm contains spatial cues. One hour later, the mouse is placed back into the maze in the “start arm” and allowed to explore all three arms with the third arm unblocked (“novel arm”). Movements in and out of each arm are tracked using automated tracking software (CleverSys). Testing is performed under dim lighting, and the apparatus is cleaned with 70% ethanol between trials.
as §1, with “treatment. All mice received 5 consecutive days of BrdU injection at 150 mg/kg IP immediately prior to treatment start.” for “treatment.”

B1: rmCCL11: Recombinant mouse CCL11 (eotaxin-1), injected i.p. to impair behaviour in young mice (protein, UniProt P48298 24-97, looked up)
Eotaxin: HPGSIPTSCCFIMTSKKIPNTLLKSYKRITNNRCTLKAIVFKTRLGKEICADPKKKWVQDATKHLDQKLQTPKP
Q: What does the source list for B1?
A: memory in the Barnes maze [1]: impaired memory in the Barnes maze; anxiety in the Open Field [2]: significantly worsened anxiety; memory in the Y-maze [3]: impaired memory in the Y-maze
